According to patent US5279812:
Read-outs that look alike come from different tables or passages of the source.

Key:
[1] = target: Bovine thrombin (bovine) (UniProt P00735)
[2] = target: Bovine thrombin (bovine) (UniProt P00735); remark: listed apart in the source

| IC50, thrombin induced fibrin clot inhibition assay (turbidity at 405 nM) [1] [µM] | IC50, thrombin induced fibrin clot inhibition assay (turbidity at 405 nM) [2] [µM] | Substance |
| --- | --- | --- |
| < 25 |  | Suc 3,5-diI-Tyr Glu Pro Ile Pro Glu Glu Ala Cha D-Glu (ID#4) (peptide) |
|  | < 25 | Suc--Tyr--Glu--Pro--Ile--Pro--Glu--Glu--Cha--D--Glu (ID#21) (peptide) |
|  | < 25 | Suc--Tyr--Glu--Pro--Ile--Pro--Glu--Glu--Cha--Gln--NH2 (ID#11) (peptide) |
|  | < 25 | Suc--Tyr--Glu--Pro--Tiq--Glu--Glu--Ala--Cha--D--Glu (ID#9) (peptide) |
